# Measured values from patent US20250026827A1 (Alector, published 2025).
# Where a chain is given by its changes, count along the chain named.
# T1: mouse SIRPα D1-Fc (mouse, UniProt P97797 32-150, limits assumed)
# T1 construct: domain: D1
# T1 sequence (looked up): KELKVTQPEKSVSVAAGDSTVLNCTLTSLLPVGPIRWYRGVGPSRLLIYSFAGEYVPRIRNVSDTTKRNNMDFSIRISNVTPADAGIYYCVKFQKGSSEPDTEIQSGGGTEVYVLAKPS
# T2: mouse SIRPα on cells (mouse, UniProt P97797 32-513)
# T2 construct: whole, on cells
# T2 sequence (looked up): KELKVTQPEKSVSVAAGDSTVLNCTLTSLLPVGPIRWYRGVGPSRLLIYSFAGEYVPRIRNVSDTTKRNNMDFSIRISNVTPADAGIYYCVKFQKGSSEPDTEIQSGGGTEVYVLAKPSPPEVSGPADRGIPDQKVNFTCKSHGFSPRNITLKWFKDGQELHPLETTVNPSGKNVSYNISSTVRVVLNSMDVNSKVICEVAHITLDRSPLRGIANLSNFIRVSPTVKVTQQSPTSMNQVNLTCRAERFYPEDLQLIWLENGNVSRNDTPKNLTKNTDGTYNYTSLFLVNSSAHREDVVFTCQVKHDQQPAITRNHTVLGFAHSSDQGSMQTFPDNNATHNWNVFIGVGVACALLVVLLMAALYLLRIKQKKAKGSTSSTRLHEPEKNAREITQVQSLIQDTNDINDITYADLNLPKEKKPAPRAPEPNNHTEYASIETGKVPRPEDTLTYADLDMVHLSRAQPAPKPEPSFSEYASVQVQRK
# T3: mouse SIRPβ1 on CHO cells (mouse)
# T3 construct: Whole entry
# T3 chain: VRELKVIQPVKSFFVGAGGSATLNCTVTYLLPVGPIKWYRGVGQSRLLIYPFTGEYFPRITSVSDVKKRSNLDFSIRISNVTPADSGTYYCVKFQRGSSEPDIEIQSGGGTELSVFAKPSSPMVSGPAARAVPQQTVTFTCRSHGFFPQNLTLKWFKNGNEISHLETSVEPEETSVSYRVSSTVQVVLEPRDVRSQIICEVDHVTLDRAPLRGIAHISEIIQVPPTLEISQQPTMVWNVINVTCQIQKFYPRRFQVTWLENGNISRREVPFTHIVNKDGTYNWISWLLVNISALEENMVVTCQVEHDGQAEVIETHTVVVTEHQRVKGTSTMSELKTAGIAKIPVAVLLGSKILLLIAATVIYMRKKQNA
# B1: SB-16 (antibody, V domains shown)
# VH: QVQLVQSGAEVKKPGSSVKVSCKASGGTFSSYAISWVRQAPGQGLEWMGSIIPIFGTANYAQKFQGRVTITADESTSTAYMELSSLRSEDTAVYYCARANYYDSSGYSGLDLWGRGTLVTVSS
# VL: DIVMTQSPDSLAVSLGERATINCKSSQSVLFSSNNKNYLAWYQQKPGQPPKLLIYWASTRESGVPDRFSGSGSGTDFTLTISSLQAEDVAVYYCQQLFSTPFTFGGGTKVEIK
# notes: IgG
# B2: SB-18 (antibody, V domains shown)
# VH: QVQLVQSGAEVKKPGSSVKVSCKASGGTFSSYAISWVRQAPGQGLEWMGGIIPIFGTANYAQKFQGRVTITADESTSTAYMELSSLRSEDTAVYYCARAKPRGDYGMDVWGQGTTVTVSS
# VL: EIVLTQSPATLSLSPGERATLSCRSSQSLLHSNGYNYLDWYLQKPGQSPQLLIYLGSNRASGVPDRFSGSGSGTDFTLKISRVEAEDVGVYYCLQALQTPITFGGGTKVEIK
# notes: IgG
# B3: SB-7 (antibody, V domains shown)
# VH: QVQLVQSGAEVKKPGSSVKVSCKASGGTFSSYAISWVRQAPGQGLEWMGGIIPIFGTASYAQKFQGRVTITADESTSTAYMELSSLRSEDTAVYYCARETRQDSAHYYGMDVWGQGTTVTVSS
# VL: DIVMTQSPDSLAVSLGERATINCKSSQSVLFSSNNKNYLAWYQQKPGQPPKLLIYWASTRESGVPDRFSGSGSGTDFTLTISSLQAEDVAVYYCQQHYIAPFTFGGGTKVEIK
# notes: IgG
# B4: SB-20 (antibody, V domains shown)
# VH: B3 VH with G50S, S59N, E99D, T100G, Q102E, D103Y, S104G, A105G
# VL: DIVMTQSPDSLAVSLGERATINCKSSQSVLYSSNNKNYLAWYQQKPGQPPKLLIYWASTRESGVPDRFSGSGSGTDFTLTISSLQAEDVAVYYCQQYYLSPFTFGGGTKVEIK
# notes: IgG
# B5: SB-22 (antibody, V domains shown)
# VH: EVQLVESGGGLVQPGGSLRLSCAASGFTVSSNYMSWVRQAPGKGLEWVSVIYSDGSTYYADSVKGRFTISRDNSKNTLYLQMNSLRAEDTAVYYCARPTRYGYDRLGMDVWGQGTTVTVSS
# VL: DIQMTQSPSSVSASVGDRVTITCRASQGISSWLAWYQQKPGKAPKLLIYAASNLQSGVPSRFSGSGSGTDFTLTISSLQPEDFATYYCQQGNSYPITFGGGTKVEIK
# notes: IgG
# B6: SB-23 (antibody, V domains shown)
# VH: QVQLVQSGAEVKKPGSSVKVSCKASGGTFSSYAISWVRQAPGQGLEWMGGIAPIFGTANYAQKFQGRVTITADESTSTAYMELSSLRSEDTAVYYCARTTYRDYYMDVWGKGTTVTVSS
# VL: B5 VL with V11L, G28S, W32Y, A34N, N53S, G91A, N92Y, S93P, I96L
# notes: IgG
# B7: SB-24 (antibody, V domains shown)
# VH: QVQLQESGPGLVKPSETLSLTCAVSGYSISSGYYWAWIRQPPGKGLEWIGSIYHSGSTYYNPSLKSRVTISVDTSKNQFSLKLSSVTAADTAVYYCARDRSRGYPVYGMDVWGQGTTVTVSS
# VL: EIVMTQSPATLSVSPGERATLSCRASQSVSSNLAWYQQKPGQAPRLLIYGASTRATGIPARFSGSGSGTEFTLTISSLQSEDFAVYYCQQLNIHPWTFGGGTKVEIK
# notes: IgG
# B8: SB-25 (antibody, V domains shown)
# VH: QVQLVQSGAEVKKPGSSVKVSCKASGGTFSSLAISWVRQAPGQGLEWMGGIIPIFGTANYAQKFQGRVTITADESTSTAYMELSSLRSEDTAVYYCARSGGDYSGYDYASGMDVWGQGTTVTVSS
# VL: B5 VL with N53S, G91V, Y94F, I96W
# notes: IgG
# B9: SB-27 (antibody, V domains shown)
# VH: QVQLVQSGAEVKKPGSSVKVSCKASGGTFSSYAISWVRQAPGQGLEWMGGIIPIFGTANYAQKFQGRVTITADESTSTAYMELSSLRSEDTAVYYCARQDLGSSHWHFDLWGRGTLVTVSS
# VL: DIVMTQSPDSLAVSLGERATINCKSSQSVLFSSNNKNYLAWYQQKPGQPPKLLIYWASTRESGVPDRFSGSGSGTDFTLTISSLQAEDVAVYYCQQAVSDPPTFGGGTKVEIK
# notes: IgG
# B10: SB-34 (antibody, V domains shown)
# VH: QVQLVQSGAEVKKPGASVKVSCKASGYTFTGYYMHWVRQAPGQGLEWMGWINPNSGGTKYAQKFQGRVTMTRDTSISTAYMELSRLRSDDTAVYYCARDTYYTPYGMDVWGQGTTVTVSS
# VL: B7 VL with L91D, I93T, H94F, W96Y
# notes: IgG
# B11: SB-50 (antibody, V domains shown)
# VH: QVQLVQSGAEVKKPGSSVKVSCKASGGTFSSYAISWVRQAPGQGLEWMGGIIPIFGTANYAQKFQGRVTITADESTSTAYMELSSLRSEDTAVYYCAREGGGHASYHYYGMDVWGQGTTVTVSS
# VL: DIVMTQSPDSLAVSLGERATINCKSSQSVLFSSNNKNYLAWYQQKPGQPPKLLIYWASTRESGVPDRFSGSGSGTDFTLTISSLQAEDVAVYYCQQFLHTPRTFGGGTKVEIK
# notes: IgG
# B12: SB-36 (antibody, V domains shown)
# VH: QVQLVQSGAEVKKPGASVKVSCKASGYTFTSYYMHWVRQAPGQGLEWMGIINPSGGSTSYAQKFQGRVTMTRDTSTSTVYMELSSLRSEDTAVYYCAREGPEQLWYLDYWGQGTLVTVSS
# VL: DIQMTQSPSSVSASVGDRVTITCRASQGISSWLAWYQQKPGKAPKLLIYAASSLQSGVPSRFSGSGSGTDFTLTISSLQPEDFATYYCQQAFSHRTFGGGTKVEIK
# notes: IgG
# Molecular target: T4, human SIRPα domain 1 (D1) Fc fusion (human, UniProt P78324 32-149)
# T4 construct: also called human SIRPα D1-Fc; Human SIRPα Fc; not shown: C-terminal human IgG1 Fc
# Experiment: Octet
row,Binder,binding result
1,B1,no binding (tested: 100 nM)
2,B2,no binding (tested: 100 nM)
3,B3,no binding (tested: 100 nM)
4,B4,no binding (tested: 100 nM)
5,B5,no binding (tested: 100 nM)
6,B6,no binding (tested: 100 nM)
7,B7,no binding (tested: 100 nM)
8,B8,no binding (tested: 100 nM)
9,B9,no binding (tested: 100 nM)
10,B10,no binding (tested: 100 nM)
11,B11,no binding (tested: 100 nM)

# Molecular target: T1, mouse SIRPα D1-Fc
# Experiment: Octet
row,Binder,binding result
1,B1,no binding (tested: 100 nM)
2,B2,no binding (tested: 100 nM)
3,B3,no binding (tested: 100 nM)
4,B4,no binding (tested: 100 nM)
5,B5,no binding (tested: 100 nM)
6,B6,no binding (tested: 100 nM)
7,B7,no binding (tested: 100 nM)
8,B8,no binding (tested: 100 nM)
9,B9,no binding (tested: 100 nM)
10,B10,no binding (tested: 100 nM)
11,B12,no binding (tested: 100 nM)
12,B11,no binding (tested: 100 nM)

# Molecular target: T2, mouse SIRPα on cells
# Experiment: flow cytometry;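 on FOB: antibodies tested at 1 µg/ml for 30 min on ice against receptor-expressing cells, detected with a PE-labelled secondary antibody, read as mean fluorescence intensity relative to background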
# Experimental: (§1) Initial characterization of anti-SIRPβ1 antibodies involved determining their ability to bind cell lines expressing human or mouse SIRPβ1. Cells were harvested, plated at 10⁶/ml in a 96-well plate, washed, and incubated in 100 μl FACS buffer containing 1 μg/ml anti-SIRPβ1 antibody for 0.5 hour on ice. Cells were then washed twice and incubated in 100 μl FACS buffer containing 0.5 μg/ml PE-conjugated secondary antibody for 30 minutes on ice. Cells were washed twice in cold FACS buffer and acquired on a BD FACS Canto. Data analysis and calculation of mean fluorescence intensity (MFI) values or 00 positive cells was performed with FlowJo (TreeStar) software version 10.0.7.
# (§2) As a negative control, the anti-SIRPβ1 antibodies were also screened for surface binding to CHO cells overexpressing recombinant mouse SIRPβ31. […] Given the high sequence similarity between receptors of the SIRPβ family, anti-SIRPβ1 antibodies were also screened for cross-reactivity to human and mouse SIRPα.
row,Binder,FOB [fold over background]
1,B1,1.4
2,B2,0.9
3,B3,1
4,B4,1.2
5,B5,0.9
6,B6,1.4
7,B7,1.1
8,B8,1.3
9,B9,1.1
10,B10,1.3
11,B12,1.2
12,B11,1.7

# Molecular target: T3, mouse SIRPβ1 on CHO cells
# Experiment: flow cytometry;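 on FOB: antibodies tested at 1 µg/ml for 30 min on ice against receptor-expressing cells, detected with a PE-labelled secondary antibody, read as mean fluorescence intensity relative to background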
# Experimental: as §1, §2
row,Binder,FOB [fold over background]
1,B1,1.5
2,B2,1.2
3,B3,1.5
4,B4,1.3
5,B5,1.4
6,B6,1.5
7,B7,1.3
8,B8,1.2
9,B9,1.3
10,B10,1.2
11,B12,1.1
12,B11,1.2

# Molecular target: T5, human SIRPα on cells (human, UniProt P78324 31-504)
# T5 construct: Whole entry
# Experiment: flow cytometry;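 on FOB: antibodies tested at 1 µg/ml for 30 min on ice against receptor-expressing cells, detected with a PE-labelled secondary antibody, read as mean fluorescence intensity relative to background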
# Experimental: as §1, §2
row,Binder,FOB [fold over background]
1,B1,2
2,B2,2.4
3,B3,2
4,B4,2.2
5,B5,1.9
6,B6,1.9
7,B7,2.5
8,B8,2.5
9,B9,2.4
10,B10,2
11,B12,2.1
12,B11,2.5

# Molecular target: T6, human SIRPβ1 isoform 1 on cells (human, UniProt O00241 30-398)
# T6 construct: On CHO cells (low level), on BWZ/BW5147.G.1.4 cells (reporter cells co-express human DAP12) or on primary human myeloid cells; also called huSIRPβ1; BWZ-huSIRPβ1
# T6 sequence (O00241 30-398): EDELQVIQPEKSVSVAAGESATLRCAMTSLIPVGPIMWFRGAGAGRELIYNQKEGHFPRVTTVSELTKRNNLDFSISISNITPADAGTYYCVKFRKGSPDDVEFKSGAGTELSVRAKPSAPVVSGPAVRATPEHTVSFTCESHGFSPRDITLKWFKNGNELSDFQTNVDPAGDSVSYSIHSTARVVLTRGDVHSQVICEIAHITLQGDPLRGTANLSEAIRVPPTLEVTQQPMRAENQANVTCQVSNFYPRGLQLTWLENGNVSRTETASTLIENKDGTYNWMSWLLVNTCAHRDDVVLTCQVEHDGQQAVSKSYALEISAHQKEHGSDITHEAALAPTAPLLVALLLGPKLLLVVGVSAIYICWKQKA
# Experiment: flow cytometry;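 on FOB: antibodies tested at 1 µg/ml for 30 min on ice against receptor-expressing cells, detected with a PE-labelled secondary antibody, read as mean fluorescence intensity relative to background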
# Experimental: as §1, §2
row,Binder,FOB [fold over background]
1,B1,2
2,B2,2.8
3,B3,3.7
4,B4,2.6
5,B5,1.4
6,B6,2.4
7,B7,3.7
8,B8,2.1
9,B9,3.9
10,B10,1.8
11,B12,1.7
12,B11,2.8

# Molecular target: T2, mouse SIRPα on cells
# Experiment: flow cytometry
# Remark: another data set of the same source
row,Binder,binding result
1,B1,no binding (tested: 1 ug/ml)
2,B2,no binding (tested: 1 ug/ml)
3,B3,no binding (tested: 1 ug/ml)
4,B4,no binding (tested: 1 ug/ml)
5,B5,no binding (tested: 1 ug/ml)
6,B6,no binding (tested: 1 ug/ml)
7,B7,no binding (tested: 1 ug/ml)
8,B8,no binding (tested: 1 ug/ml)
9,B9,no binding (tested: 1 ug/ml)
10,B10,no binding (tested: 1 ug/ml)
11,B12,no binding (tested: 1 ug/ml)
12,B11,no binding (tested: 1 ug/ml)

# Molecular target: T3, mouse SIRPβ1 on CHO cells
# Experiment: flow cytometry
# Remark: another data set of the same source
row,Binder,binding result
1,B1,no binding (tested: 1 ug/ml)
2,B2,no binding (tested: 1 ug/ml)
3,B3,no binding (tested: 1 ug/ml)
4,B4,no binding (tested: 1 ug/ml)
5,B5,no binding (tested: 1 ug/ml)
6,B6,no binding (tested: 1 ug/ml)
7,B7,no binding (tested: 1 ug/ml)
8,B8,no binding (tested: 1 ug/ml)
9,B9,no binding (tested: 1 ug/ml)
10,B10,no binding (tested: 1 ug/ml)
11,B12,no binding (tested: 1 ug/ml)
12,B11,no binding (tested: 1 ug/ml)

# Molecular target: T5, human SIRPα on cells
# Experiment: flow cytometry
# Remark: another data set of the same source
row,Binder,binding result
1,B1,no binding (tested: 1 ug/ml)
2,B2,no binding (tested: 1 ug/ml)
3,B3,no binding (tested: 1 ug/ml)
4,B4,no binding (tested: 1 ug/ml)
5,B5,no binding (tested: 1 ug/ml)
6,B6,no binding (tested: 1 ug/ml)
7,B7,no binding (tested: 1 ug/ml)
8,B8,no binding (tested: 1 ug/ml)
9,B9,no binding (tested: 1 ug/ml)
10,B10,no binding (tested: 1 ug/ml)
11,B11,no binding (tested: 1 ug/ml)
